For this test, the target named is T1, FLAG-FBXL12-FL (full length) (human, UniProt Q9NXK8 1-326).
T1 sequence (looked up): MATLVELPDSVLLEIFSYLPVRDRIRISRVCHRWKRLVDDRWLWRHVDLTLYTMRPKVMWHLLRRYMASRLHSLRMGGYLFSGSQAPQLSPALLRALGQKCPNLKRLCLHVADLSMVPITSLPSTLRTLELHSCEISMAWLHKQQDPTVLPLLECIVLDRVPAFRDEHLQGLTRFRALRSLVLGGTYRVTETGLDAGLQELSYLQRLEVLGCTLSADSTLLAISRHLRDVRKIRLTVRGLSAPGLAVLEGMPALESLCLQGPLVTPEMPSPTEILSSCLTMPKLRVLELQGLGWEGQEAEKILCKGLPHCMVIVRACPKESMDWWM
The test is described as follows: pull-down.

Ends that are not written are not given here.

For the molecule MVSKRRLSKSEDKE (also: phosphorylated by CHK1, residues not given here) [FANCD2 N-terminal peptide WT, phosphorylated by CHK1], the binding result is given as “binds”.

The record behind these values is publication PMC10592106 (Molecular cell, 2023).
